Experiment: label from the status in PepcDB records

| Sequence | protein production |
| --- | --- |
| MLRRALEEAIAQALKEMGVPVRLKVARAPKDKPGDYGVPLFALAKELRKPPQAIAQELKDRLPLPEFVEEAVPVGGYLNFRLRTEALLREALRPKAPFPRRPGVVLVEHTSVNPNKELHVGHLRNIALGDAIARILAYAGREVLVLNYIDDTGRQAAETLFALRHYGLTWDGKEKYDHFAGRAYVRLHQDPEYERLQPAIEEVLHALERGELREEVNRILLAQMATMHALNARYDLLVWESDIVRAGLLQKALALLEQSPHVFRPREGKYAGALVMDASPVIPGLEDPFFVLLRSNGTATYYAKDIAFQFWKMGILEGLRFRPYENPYYPGLRTSAPEGEAYTPKAEETINVVDVRQSHPQALVRAALALAGYPALAEKAHHLAYETVLLEGRQMSGRKGLAVSVDEVLEEATRRARAIVEEKNPDHPDKEEAARMVALGAIRFSMVKTEPKKQIDFRYQEALSFEGDTGPYVQYAHARAHSILRKAGEWGAPDLSQATPYERALALDLLDFEEAVLEAAEERTPHVLAQYLLDLAASWNAYYNARENGQPATPVLTAPEGLRELRLSLVQSLQRTLATGLDLLGIPAPEVM | not failed |
| MLRSLRLAALLGSLLMAVAASARDIDAASYGYPLTNPFEATIATTPPDKRPELPSDDEITQSDYSLNLRPEREFTLPDNFWAVKKLKYRLARQDHEAPLIFIIAGTGAPYSSSINEYLKKLFYQAGFHVVQLSSPTSYDFMSAASRFATPGISQEDAEDMYRVMQAVRAQHPRLPVSDFYLTGYSLGALDAAFVSHLDETRRSFNFKRVLLLNPPVNLYTSINNLDKLVQTQVKGIDRSTTFYELMLEKLTRYFQDKGYIDLNDALLYDFQQSRQHLSNEQMAMLIGTSFRFSAADIAFTSDLINRRGLIIPPKFPITEGSSLTPFFKRALQCDFDCYMTEQVIPMWRARTDGNSILQLVNQVSLYALEDYLRSSDKIAVMHNADDVILGPGDIGFLRKVFGERLTLYPHGGHCGNLNYRVNSDAMLEFFRG | failed |
| MLRVTPILLAVLYAFAMYHFSAWRTRRELDARSTELADPALKRLTDRLAAALGVARVPVHIYEIDPVNGLAAPDGRIFITRGFYRKYQSGEVTGEELTSVIAHELGHVALGHSRRRMIDFSGQNAMRTALAMLLGRFIPFFGVWIANMLTTLLAARLSRADEYEADAYAAALLTKAGIGVAPQKALFHKLDALTEQRAGVAPAWLLSHPKTAERIAALDRLEARWQAH | failed |
| MLRYILLKIDIGKEGTDMAAIQAKNGPTEKLSLFLLTWPIFLEVFLFMLMGIADTFMLSALSDDAVSGVGAANQYLHIAILVLEVIGNGAAIVVSQYLGSKRFMEASKISALAVTLNLIVGLVISTGFLLFSKHMMLAMNLQGDVLTYAQNYLSIVGGAIFLQAIINSLAAIIRVHGFTKQAMFISLGMNMIHIAGNYVLIFGKFGFPELGVQGAAISSAVSRLIALIVFFWLLYRVMEYRVKLQYYFTLSKEYIGKILKIGIPSAFEQVMYQACQIVFLYYATYLGTESLAARQYATNISMFTYLFAIAIGMGTAIIIGRLVGGGEKDEAYERLWKSVKWAIGVTLCMVALVITFRTQLMGLFTDNPYIIGLGASVLLLSVLLETGRTMNIVIINSLRAAGDAKYPVLIGAFSMVLMSLPLGYFFAFHLDMGLVGIWLAIAIDEWTRAIIMFFRWKSRAWERYALVKPEEQEENVSVQVQ | failed |
| MLSFILSIFPIVLLIYLMVKRNALPSYVALPWVATLVMGVHLLHFNTDIVTISANVVSAIIAVQTPITVIFGAILFNRFSEISGATNIMRKWLGNINPNPVAQLMIIGWAFAFMIEGASGFGTPAAIAAPILVGLGFHPLKVAMLALIMNSVPVSFGAVGTPTWFGFGALKLSEDMILEIGSITAFIHSIAALIIPLLALRILVNWDDIRKNIVFIYISVLGCVVPYFLIAQVNYEFPSLVGGAIGLFISVWAANRNIGLAKVTNTLDNNAVSAGEVVKALFPTGLLIAFLIVTRIHQLPFKAMMNDATIWFSTTLGSLGLFEISKGLIFSLKNIFGSNVSSSYKLLYVPALIPFVITVLIAIPFFKISSSNVKQILVSSLQQSKNPFIALIGALVMVNLMLVGGEHSMVKIIGRTFAEISGSNWTIFSSFLGAIGSFFSGSNTVSNLTFGSVQLSTAETTGISVALVLALQSVGGAMGNMVCINNIVAVSSVLNISNQEGTIIKKTIIPMIIYGIIAALGALFLVPLFYNL | failed |
| MLSGVGAPVGKQMLAGTEVAAMQINKAGGLLGREVELVIRDDKYNSSESVAVARELAGDGINLLLGGSQTVTALGLAPLAPELNMAVMIVAAAGMPVTHELFNPNIFRATANNYTQYSSLGRVLIEQNPDVRTWVSLAPDGDFGRDSALFFGKAVEKYAPGEKPTVLDTIYTQATATDFRTQINQLMSSDAEGLYIGIAASAQISFFQQARSVGLYDKFKAIGEVGNGDITGKAMGRNTHPNLWSVCHWIYNAEPFASNPVSKQLYEDYVTLKGDEMPSAQVAAGHRAAMAIFEGIRAAGSTETEAVLAAIEDVEFETVGGPVSFRKEDHQLVNTNYYSQMGPSREEPFFAFNKVVSIDAAEMIEPATPGKAFDISELPQLEHHHHHH | failed |
| MLSKHYKLKFPGTLAMKGGYLFVFLAAVMWGTLGIFAKFLYGFNLSTYTIVFYRVLFALIFLAVYLKVRGLPLLMSKDRLPFYLGFSFFSIFLFYSLYFYTVKISSVSFAVLMLYTAPVYSLIFGRILFGEKLTPSKLTAVFLVILGVLLLNLDGKLNVSKLALLTGLASGLTYSLYGVFVKFAVRREEPERVLFNVLLIGLLFLLPVTDLRVPTAALPYLLGLAFFPTFLGYILYNTALKTVEVSKASIIATIEPVVAIILAYFIFGEALSLLQYLGASLIIAGAILAKR | failed |
| MLSMIGLVGGLVLLIVLTLRGMNLFISAPLCAVIVALCSGVPLLTGDVNFVSAYMDGFASFVAAWFFMFLLGSMFGKFMEDTGAADSVARWIINKLGRKQAVLAVVLACAILTYGGVSVFVVAFSVYPMALSLFKDANLPRRFIPAALAFGSVTFTMTSAGSPEIQNWIPVKYLGTSPYAAWEVSLVVAVLMATFGYWWLRKIINRAIANGEKFEAREGDPILLERKLPSPISGLIPLLVVLGLSFTFHDTLQQNALIVALLGGVIAIAVINFKHFHKPQTAIHEATTGALVAIGNTAAVVGFGSIAKITPAFDAAVTAMTSLPGNELVGAAVAVSVIAGLTGSASGGQAIALPEVGPHYMAAGVNPEQLHRIVSISSGALDSLPHNGYVVTTIRAICNEKHSAAYWAVAAVTVVVPLMGLAVAIGLFML | failed |
| MLSMLALGSEKLMMGNNFPGSGVCFVYTDFGIPEYYRIIVLGLIALVGIKEMLLTSRKEDHFSIDSIDIGIFPLLICFVANFLFAGLEIIFTGLSP | failed |
| MLSQTLLEMTEQMIEVAEKGADRYQEGKNSNHSYDFFETIKPAVEENDELAARWAEGALELIKVRRPKYVHKEQIEAVKDNFLELVLQSYVHHIHKKRFKDITESVLYTLHAVKDEIAREDSRLEHHHHHH | not failed |
| MLSRIDLYIKHRDIFLKHLELLHKLIEKVEDSSLNESELLNARLVDDMFPFNVQAKIATNFALRACCPLSGKEYKELEGDIDSFCGLKTYVVTAIDYINKLSEPTLEQLNLNVQDTAGFKEISMPASEYMSSFVLPNFFFHISMVYAIAKNNGVSVTKGDFDGIHQYPKGFSWEA | not failed |
| MLSRILEKYRENGIQGIVLALISRFPGVRAVCVYYVYRLPFDKLVRKQLSVGNLKVVQVKSDSMGDLIRVQDKPDIFGERFQMGHYGFVAYVNNDPVAYLWGQEGPVHVERRFGFEVPIKDNQVFYYDSYTIPEWRKSGVGRALIQESIDFFKNGLGKSELIAIIETGNLVSQKTYERMGFVREAMHIHLDIIGKKINKQLARMVTQ | failed |
| MLSTNKFAVLAFATFVAFQAPAHAEDAVVAKVGNLEIHQSELDLAVANLDPQLAQLPDDQKKVAALSAAIDVKLLAAGATTEKLEQTDEFKKRMQYLTDRELHNAYFKKHVVDTVTPDEIKARYDKEVAALPKQEEVHARHILVKTEDEAKDIIKQLDAGKDFAELAKEKSTDPNKSEGGDLGYFSRGRMVKEFEDAAFALEKGAYSKTPVKTDFGYHVIKVEDKRDAPPPPFDQVQDQVRQLVMRDKYLALLNQAKSSAKIEISDETLRKGYDEANKQPEPGSEPPQPAPKQ | failed |
| MLSYPRYLAVFLLIIGQSCLAFAEEQPQVGQLFKLFDSGESMPRATIEQNIALLEKLISSDDIERIEKLNQIKCWNQASDTEEEIAKALNYAEQALSQIPSTASTHFITDINLCRAWFLQLTGDINGAMEGYTKSVQSAYEHEDIKLIADARSLRGALYSYTGDFSEALDDLVTAQGLYESLNLTGWANINLTDIATSFRRYGDPESAIKYYKKLKELYLKNGNKEQVANVMSEIGIALDEMGKHEQAIEHFRFSYQYFKDQKLNIVAAINATNIAYSLIQLNRLDEAENYLNEAAPDISENEPAAYSFMKLFMGKIRNQQGRYQEALDELSAAEHAFRVMHNDRGLIQLLQLKSDIYAAMEDLPQAYHILQEFIALTKKVDDSSIAHQTTELKVKFDTSWIESENKRLIDNQKLKEQELTLLEKNKSLQLIILLLTGCILATVSLFAYKQVHRNRQLQTIALTDYLTQLPNRRHIYAQAEQYFQLALKQQIPFSIIIFDADHFKKINDNFGHEIGDQALLTIAEASKTLTTDRNLVGRIGGEEFLILLPNTDADRAWKLAHELQTLITRFGAINLPVELKLTVSAGVATLPIQSELQDQNFARLLKRADNALYEAKNAGRNCVKAAEITG | failed |
| MLTAFTAGLLLITVSELGDKTFFIAMILAMRYPRRWVLVGVVGGLAAMTILSVLMGQIFTFLPTRYINYAEVALFLIFGTKLLWDARRIKATANLEEMEDAEKAIASGEKKLKIVPRGWGIVVESFALTFVAEWGDRTQIATIALAASNNAWGVSAGAILGHTICAVIAVMGGKFVAGRISEKTVTLIGGLLFYLFAVVSWWTKIA | failed |
| MLTANIQAASSTRRYSDYVTRSWSHALPIGRKRINLDAIAQLAGERDIVGLQESDPGSLRSGFTNQTCYLAQRAGFHYWSHQPNRRMAGVASSANGLLSRLKPRQIHNHALPGRIPGRGVLLAKFGNGGFDSLVVAVVHLSLGVRSRMAQLVFIADLLAEYPNTILMGDFNCRADCSEMQVLYRRTRLQPPGVVIPTFPSWRPERAIDHILVSEGFYICKTEAVPAAFSDHLAVSMDLVIPQRILRLEHHHHHH | failed |
| MLTDAHCRAAKAKDKLYRINDARGLYLEVKPNGVRAWRYRFKLCGKASWFALGDYPDLSLANAREKCDEARKLVRQGINPVQNRQLTKIKREMDASNTFETIAQEWLALKSWEPVTKSRRLGMLKRVVFPSIGKLPVRTITSAHVLDILNKTVKRGAPTVAAEAKRTMSGVFELAVATLRADTDPVWPVRKALPPNKTQHKAALTSGQVGNLLNAFDSHGGHFQTQMAFRLMWLTLTRANESVQARWDEFDLANGLWKIPKERMKARREHLLPLPRQAVSILTTMQPITGQSTYVFPNRDDRHKPMSDAAFRQALKKLGWATIYSPHGTRTTGSTRLNEMGYRSDAIEAQLAHAEPNSVRRAYNHAIYMVERAEMMQHWADKLDLWKKEASDAAI | failed |
| MLTDMQRDSASSSTVTTEQIVYGALPLTTINEPECRAIAITSINGSATLSGVSGPMGDQTDADLLIQLRGWADAIVVGAETARKENYGPVVLPHGIKNQRQKLGRCGLPKLTLLSKSLYFDFSSELFSPDLPSELSPLVITQQPANNSEQWDQRLQKLIDVGVEVIVAPTSTNPLKIAFDALHARRLKKISIEGGPSVYRQALSLGIVDRLHLTIAPNIICPVESPLFGKISDDSFTTRLVLEMLSSSPNGLIFSRYKVIRDTLGNPTQ | not failed |
| MLTEVSDTRIAHKKFGLFYPSVSRPSIFVEGEDRKNFLQGIASQDILKQDEKSLSYSFFLNPKARILFDAWCGNFEDKIALFPPAGTREEFVNHLKKYLFFRTKAKITDMSDHFREIRLVGPETISVLLSLFDNNFSGSSFRMLKNGGYVLIHPTSFQHNLDVGLQADLFIPIDQFETTQKSLEDFTSNKGGVLLDESSYLAYLTEKGIPLFPSELNDSFFPAEAGLDSVGVSYNKGCYVGQEPVTRLKFQGHLNRSLAGFRLEGGPFPKMEFPVTLFNPKDGNEAGILTRTSSSDILGSGIGLGYIKRNFSENGTELLLPDAQLVRVHSLPFV | not failed |
